Test results: patent US20150258217A1, “Methods of Synthesizing and Using Peg-Like Fluorochromes” (THE GENERAL HOSPITAL CORPORATION, priority 2012, published 2015)

Tests used:
[1] = Blood half-life from serum fluorescence after tail injection; format: in vivo; details: mouse, IV; single decay constant fit
Description: Using these procedures and PEG's of different molecular weights, PEG-like NIR fluorochromes of different molecular weights, volumes and pharmacokinetics were synthesized, with results summarized in Table 3B. Blood half-lives were determined by tail injection into mice and measuring serum fluorescence as a function of time. Data (fluorescence versus time) were fit to a single decay constant equation to yield blood half-lives. Human pharmacokinetics will be far slower than that of mice.

[2] = test system: HT-29, a human colon carcinoma cell line; assay: PN and peptide binding to cells (non-specific binding, FACS); format: cell-based; details: HT-29 cells, 30 min at 37° C., FACS
Outline: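 Cells seeded at 5×10^5 cells/well the day before, then rinsed and incubated 30 min at 37 °C in 2% FBS/DPBS (+Ca, +Mg) with nanoprobes (added as a 2 μM solution; concentration set spectrophotometrically via dye extinction coefficients). After trypsin/EDTA detachment, cell-associated fluorescence was read by FACS.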

[3] = Whole animal surface fluorescence after IV injection (elimination); format: in vivo, mouse; details: bladder at 20 minutes, vs (DOTA)Lys-Cys(IR-783) peptide
Text: (§1) A Kodak FX multispectral imaging system was used (Carestream Molecular Imaging, Rochester, N.Y.). Excitation at multiple wavelengths (620, 650, 690, 710, 720, 730, 750 and 760 nm) with the emission at 830 nm was setup for IR-783 spectrum; Excitation at multiple wavelengths (420, 440, 460, 480, 510, 520, 530, and 540 nm) with the emission at 600 nm was setup for Cy3 spectrum; Excitation at multiple wavelengths (450, 470, 510, 520, 530, 540, 550, 570, and 590 nm) with the emission at 700 nm was setup for mCherry; with manufacturer's software to separate (unmix) the IR-783 spectrum, Cy3 spectrum, or mCherry spectrum from skin autofluorescence and chlorophyll fluorescence from food. X-ray images were taken after fluorescence images. Animals were anesthetized with 2% isoflurane with O2 flow (2 I/min) during imaging.

HT-29 tumor = format: in vivo, mouse
Text: as §1
Female nude mice (25-30 g; 6-8 weeks old; nu/nu) were anesthetized with 2% isoflurane/O2. HT-29 or mCherry-HT-29 cells were detached, pelleted and 200 μl of cell suspension containing 10^6 cells in Matrigel (BD Bioscience) was injected subcutaneously into right and left shoulders. Tumors were allowed to grow 5-7 days before experiments.
The imaging was performed by Triumph II multimodality imaging system (Gamma Medica Ideas, LLC) comprising XSPECT with four CZT (Cadmium Zink Telluride) detectors and X-O CT with CMOS detector. SPECT data of the ^111In-labeled compound was acquired for 60 minutes using 5-pinhole collimators and processed with 3D-OSEM algorithm using 4 subsets and 5 iterations. 3-dimensional CT data was processed with modified Feldkamp software. […] Animals were under isoflurane anesthesia (1.5%) with O2 flow (1.5 l/min) and kept warm during the imaging with a heated animal bed.
150 μl of ^111In-labeled PN(783)10 (400 μCi, ˜2 nmole) were injected to tumor-bearing animals by tail vein (IV). 24 hours or 48 hours later, animals were sacrificed, and tumors, blood, liver, spleen, stomach, kidneys, small intestine, lung, heart, tail, fat, and muscle, were collected. Radioactivity was measured with Perkin Elmer, Wizard2 2480 gamma counter.

[4] = mouse, in vivo
Description: At two hours post injection, agent is in the blood and interstitium. By 24 hours post injection, tumors are becoming apparent as agent is being cleared. At 48 hours, labeling is highly tumor selective. […] By surface fluorescence, as with SPECT, labeling is highly tumor selective at 48 hours. Biodistribution as organ radioactivity concentrations FIG. 26(c) and total organ radioactivity FIG. 26(d) were obtained by dissection and ^111In counting at 24 hours and 48 hours post injection. Even at 48 hours post injection some 7.5% of injected dose is in the blood, with less than 5% in liver, even though the diameter of PN(783)10.0 exceeds that of albumin (6.7 nm). Data are means and standard deviations. […] By 72 hours, some 17% of injected dose was retained, approximately half of which was still in the blood based on FIG. 26d.

Row | Substance | Serum half-life [1] | Cell NSB (percent of cells with fluorescence higher than unstained cell) [2] | fluorochrome elimination after IV injection [3] | tumor retention (EPR) by SPECT and surface fluorescence (HT-29 tumor; HT29 tumor, 48 hours) | injected dose in the blood (HT-29 tumor; mouse, in vivo) | injected dose in the liver (HT-29 tumor; mouse, in vivo) | injected dose retained (whole animal) [4]
1 | (DOTA)Lys(PEG5K)-Cys(IR-783) [PN(783)4.3] | 13.1 min | 20% | enhanced fluorochrome elimination | – | – | – | –
2 | (DOTA)Lys(PEG30K)-Cys(IR-783) [PN(783)10.0] | – | 18% | – | retained in the tumor | ~7.5% | less than 5% | ~17%
